Test results published in patent US20200171163A1 (Daiichi Sankyo, published 2020).

T1: Recombinant Human CDH6 Fc His chimera (R&D Systems, Inc.) (human, UniProt P55285 54-615)
T1 construct: Bought product; also called the antigen; human CDH6 antigen
T1 sequence: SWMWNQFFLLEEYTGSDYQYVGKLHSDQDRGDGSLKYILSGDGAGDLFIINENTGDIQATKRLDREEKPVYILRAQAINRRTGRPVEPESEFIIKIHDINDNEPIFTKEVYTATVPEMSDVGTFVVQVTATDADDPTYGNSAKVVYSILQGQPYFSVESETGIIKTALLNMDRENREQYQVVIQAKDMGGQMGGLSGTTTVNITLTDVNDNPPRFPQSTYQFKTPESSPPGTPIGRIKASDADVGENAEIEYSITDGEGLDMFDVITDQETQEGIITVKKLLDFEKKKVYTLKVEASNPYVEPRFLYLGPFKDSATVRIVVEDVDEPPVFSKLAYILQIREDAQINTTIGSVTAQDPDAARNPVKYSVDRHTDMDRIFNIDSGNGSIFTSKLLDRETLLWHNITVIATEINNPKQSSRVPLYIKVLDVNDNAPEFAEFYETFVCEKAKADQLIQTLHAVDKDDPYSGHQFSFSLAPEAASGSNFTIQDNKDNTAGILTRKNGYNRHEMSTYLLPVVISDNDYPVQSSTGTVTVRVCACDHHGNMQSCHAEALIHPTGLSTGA

T2: rat CDH6 (on cells) (rat, UniProt P55280 54-789)
T2 construct: also called rCDH6
T2 sequence: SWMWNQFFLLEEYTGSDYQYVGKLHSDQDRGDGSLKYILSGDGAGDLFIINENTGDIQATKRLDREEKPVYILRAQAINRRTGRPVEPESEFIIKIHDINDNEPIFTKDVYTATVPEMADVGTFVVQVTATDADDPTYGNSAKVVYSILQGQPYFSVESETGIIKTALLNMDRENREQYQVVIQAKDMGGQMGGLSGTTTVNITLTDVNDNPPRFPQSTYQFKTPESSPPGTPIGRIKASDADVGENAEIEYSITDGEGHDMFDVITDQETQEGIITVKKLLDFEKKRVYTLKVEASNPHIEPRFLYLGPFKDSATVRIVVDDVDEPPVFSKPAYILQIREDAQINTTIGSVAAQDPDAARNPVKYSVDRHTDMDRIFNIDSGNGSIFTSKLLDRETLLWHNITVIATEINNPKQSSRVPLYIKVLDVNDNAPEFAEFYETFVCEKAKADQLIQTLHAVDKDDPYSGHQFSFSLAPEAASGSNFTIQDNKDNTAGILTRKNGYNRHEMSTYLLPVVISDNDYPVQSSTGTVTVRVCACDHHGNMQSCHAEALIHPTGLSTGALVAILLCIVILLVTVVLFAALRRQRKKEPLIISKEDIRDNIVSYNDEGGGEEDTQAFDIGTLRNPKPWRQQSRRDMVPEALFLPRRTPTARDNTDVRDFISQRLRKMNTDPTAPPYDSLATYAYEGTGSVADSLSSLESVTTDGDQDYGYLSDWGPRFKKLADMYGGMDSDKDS


Assays:
[1] = target: T1, Recombinant Human CDH6 Fc His chimera …; assay: SPR (Biacore T200), antigen captured by anti-His antibody, antibody as analyte, steady state affinity model
Protocol: The dissociation constant between the antibody and the antigen (Recombinant Human CDH6 Fc His chimera, R&D Systems, Inc.) was measured by using Biacore T200 (GE Healthcare Biosciences Corp.), according to a capture method, which comprises capturing the antigen as a ligand with the immobilized anti-His antibody and then measuring the dissociation constant using an antibody as an analyte. Approximately 1000 RU of the anti-histidine antibody (His capture kit, GE Healthcare Biosciences Corp.) was covalently bound to sensor chip CM5 (GE Healthcare Biosciences Corp.) by the amine coupling method. The antibody was also immobilized onto reference cells in the same manner as above. HBS-P+ (10 mM HEPES pH 7.4, 0.15 M NaCl, 0.05% Surfactant P20) supplemented with 1 mM CaCl₂ was used as a running buffer. The antigen was added onto the anti-histidine antibody-immobilized chip for 60 seconds, and a dilution series solution (0.391 to 100 nM) of the antibody was then added at a flow rate of 30 μl/min for 300 seconds. Subsequently, the dissociation phase was monitored for 600 seconds. As a regeneration solution, a glycine solution (pH 1.5) supplemented with 5 M MgCl2 was added twice at a flow rate of 10 μl/min for 30 seconds. A Steady State Affinity model in analysis software (BIAevaluation software, version 4.1) was used in data analysis, and the dissociation constant (KD) was calculated.

rat CDH6 (on cells) = target: T2, rat CDH6 (on cells); assay: flow cytometry, MFI vs antibody concentration; 293α cells transiently transfected with rCDH6; PE anti-human IgG Fc
Protocol: The cells were cultured overnight under conditions of 37° C. and 5% CO₂, and thereafter, a cell suspension was prepared. […] Thereafter, the cells were suspended by the addition of each of the 4 humanized hG019 antibodies (clone Nos: H01L02, H02L02, H02L03 and H04L02), which had been prepared in Example 5)-5-3, or human IgG1 control (Calbiochem). The cells were left standing at 4° C. for 1 hour. The cells were washed twice with PBS supplemented with 5% FBS, and then suspended by the addition of anti-human IgG, Fc(gamma) PE goat F(ab′) (Jackson ImmunoResearch Laboratories, Inc.) that had been 500-fold diluted with PBS supplemented with 5% FBS. The cells were left standing at 4° C. for 1 hour. The cells were washed twice with PBS supplemented with 5% FBS, followed by detection using a flow cytometer (Canto II; BD Biosciences). The data was analyzed using FlowJo (Tree Star, Inc.). In FIGS. 6-1 and 6-2, the abscissa depicts antibody concentration, and the ordinate depicts the amount of the antibody bound based on mean fluorescence intensity. As shown in FIGS. 6-1 and 6-2, the human IgG1 control as a negative control binds to none of the CDH6-transfected cells. The 4 humanized hG019 antibodies (clone Nos: H01L02, H02L02, H02L03 and H04L02) bind to human CDH6 and cynomolgus monkey CDH6, but bind to neither mouse nor rat CDH6. None of the antibodies bind to the cells transfected with the empty vector pcDNA3.1 as a negative control.

Kd [1]	binding result (rat CDH6 (on cells))	Binder
1.4 nM	no binding (tested: about 4 nM)	H02L03 antibody (antibody, human IgG1, kappa, V domains shown, Humanized IgG1/kappa (hH02 + hL03); also called humanized hG019 antibody H02L03) VH: EVQLVQSGAEVKKPGASVKVSCKASGYTFTRNFMHWVRQAPGQGLEWMGWIYPGDGETEYNQKFQGRVTITADRSTSTAYMELSSLRSEDTAVYFCARGVYGGFAGGYFDFWGQGTLVTVSS VL: DIQMTQSPSSLSASVGDRVTITCKASQNIYKNLAWYQQKLGEGPKLLIYDANTLQTGVPSRFSGSGSGTDFTLTISSLQPEDFATYYCQQYYSGWAFGQGTKVEIKR
1.5 nM	no binding (tested: about 4 nM)	H01L02 antibody (antibody, human IgG1, kappa, V domains shown, Humanized IgG1/kappa (hH01 + hL02); also called humanized hG019 antibody H01L02; labeled H01L02) VH: EVQLVQSGAEVKKPGASVKVSCKASGYTFTRNFMHWVRQAPGQGLEWMGWIYPGDGETEYAQKFQGRVTITADTSTSTAYMELSSLRSEDTAVYYCARGVYGGFAGGYFDFWGQGTLVTVSS VL: DIQMTQSPSSLSASVGDRVTITCKASQNIYKNLAWYQQKPGKAPKLLIYDANTLQTGVPSRFSGSGSGSDFTLTISSLQPEDFATYFCQQYYSGWAFGQGTKVEIKR

Second part, the binder before the results:

Binder	Kd [1]	binding result (rat CDH6 (on cells))
H02L02 antibody (antibody, human IgG1, kappa, V domains shown, Humanized IgG1/kappa (hH02 + hL02); also called humanized hG019 antibody H02L02) VH: EVQLVQSGAEVKKPGASVKVSCKASGYTFTRNFMHWVRQAPGQGLEWMGWIYPGDGETEYNQKFQGRVTITADRSTSTAYMELSSLRSEDTAVYFCARGVYGGFAGGYFDFWGQGTLVTVSS VL: DIQMTQSPSSLSASVGDRVTITCKASQNIYKNLAWYQQKPGKAPKLLIYDANTLQTGVPSRFSGSGSGSDFTLTISSLQPEDFATYFCQQYYSGWAFGQGTKVEIKR	1.1 nM	no binding (tested: about 4 nM)
H04L02 antibody (antibody, human IgG1, kappa, V domains shown, Humanized IgG1/kappa (hH04 + hL02); also called humanized hG019 antibody H04L02) VH: QVQLVQSGAEVKKPGASVKVSCKASGYTFTRNFMHWIRQAPGQGLEWMGWIYPGDGETEYAQKFQGRVTLTADRSTSTAYMELSSLRSEDTAVYYCARGVYGGFAGGYFDFWGQGTLVTVSS VL: DIQMTQSPSSLSASVGDRVTITCKASQNIYKNLAWYQQKPGKAPKLLIYDANTLQTGVPSRFSGSGSGSDFTLTISSLQPEDFATYFCQQYYSGWAFGQGTKVEIKR	1.1 nM	no binding (tested: about 4 nM)
